According to PMC5356841 (2016):

Target: individual catalytic domain of human MT1-MMP (MT1-CAT) (human, UniProt P50281 114-287, biotin (EZ-Link sulfo-NHS-LC-biotin, 1:20 enzyme-biotin molar ratio) in the Fab binding ELISA only; unlabelled in the competition ELISA and the cleavage assays)
Assay: ELISA

B1: 3E9 Fab (Fab, V domains shown)
VH: EVQLVESGGGLVQPGGSLRLSCAASGFNLYYSSMHWVRQAPGKGLEWVASIYPSYGSTYYADSVKGRFTISADTSKNTAYLQMNSLRAEDTAVYYCARNGRYPGFLKRAHKRLLNFKAYVMDYWGQGTLVTVSS
VL: DIQMTQSPSSLSASVGDRVTITCRASQSVSSAVAWYQQKPGKAPKLLIYSASSLYSGVPSRFSGSRSGTDFTLTISSLQPEDFATYYCQQGSWYLITFGQGTKVEIK
Kd: 45 nM

B2: 2B5 Fab (Fab, V domains shown)
VH: EVQLVESGGGLVQPGGSLRLSCAASGFNLSYSSMHWVRQAPGKGLEWVASIYPYSGYTYYADSVKGRFTISADTSKNTAYLQMNSLRAEDTAVYYCARIGVNAWAVKMSQRMLATRGSGWYVMDYWGQGTLVTVSS
VL: DIQMTQSPSSLSASVGDRVTITCRASQSVSSAVAWYQQKPGKAPKLLIYSASSLYSGVPSRFSGSRSGTDFTLTISSLQPEDFATYYCQQSSSYPYSPITFGQGTKVEIK
Kd: 21 nM
